B1: Anti-CD20 scFv-huIgG1Fc mAb (Fc fusion)
chain: QIVLSQSPAILSASPGEKVTMTCRASSSVSYIHWFQQKPGSSPKPWIYATSNLASGVPVRFSGSGSGTSYSLTISRVEAEDAATYYCQQWTSNPPTFGGGTKLEIKGGGGSGGGGSGGGGSQVQLQQPGAELVKPGASVKMSCKASGYTFTSYNMHWVKQTPGRGLEWIGAIYPGNGDTSYNQKFKGKATLTADKSSSTAYMQLSSLTSEDSAVYYCARSTYYGGDWYFNVWGAGTTVTVSA
notes: also called Rituximab (C2B8) scFv-huIgG1Fc; not shown: human IgG1 Fc by the name
B2: Anti-CD20 Fab-huIgG1Fc mAb (antibody, V domains shown)
VH: EVQLQQSGAELVKPGASVKMSCKASGYTFTSYNMHWVKQTPGQGLEWIGAIYPGNGDTSYNQKFKGKATLTADKSSSTAYMQLSSLTSEDSADYYCARSNYYGSSYWFFDVWGAGTTVTVSS
VL: DIVLTQSPAILSASPGEKVTMTCRASSSVNYMDWYQKKPGSSPKPWIYATSNLASGVPARFSGSGSGTSYSLTISRVEAEDAATYYCQQWSFNPPTFGGGTKLEIKR
notes: also called Leul6 (Leu16) Fab-huIgG1Fc; not shown: human IgG1 Fc by the name
B3: VHH-440-huIgG1Fc mAb (Fc fusion)
chain: QVHLMESGGGSVQAGGSLRLSCQASAYIRVFYLMGWFRQAPGKEREEVARVTADGFTNHAASVKGRFTISKDNAKNTLYLQMDSMKSEDTAVYYCAAGRTWNSGFEYWGQGTQVTVSS
notes: not shown: human IgG1 Fc by the name

What was measured:
[1] = target: T1, human CD20 (membrane spanning 4-domains A1, MS4A1) on cells (human, UniProt P11836 1-297); test: flow cytometry, mAb titrated on Raji cells, PE anti-human IgG1 Fc detection
T1 construct: whole, on cells; Target cells used: Raji, K562-CD20, CHO-CD20, Daudi, RPMI-8226 (very low CD20); also called CD20 receptor; CD20 antigen
T1 sequence (looked up): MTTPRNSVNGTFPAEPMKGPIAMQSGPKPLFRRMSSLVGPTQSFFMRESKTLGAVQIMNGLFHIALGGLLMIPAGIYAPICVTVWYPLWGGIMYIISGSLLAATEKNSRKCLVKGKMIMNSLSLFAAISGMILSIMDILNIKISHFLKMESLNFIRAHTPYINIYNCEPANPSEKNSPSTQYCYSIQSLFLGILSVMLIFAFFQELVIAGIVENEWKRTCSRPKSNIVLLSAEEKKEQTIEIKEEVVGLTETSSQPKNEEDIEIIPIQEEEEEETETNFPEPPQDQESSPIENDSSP
Description: (§1) Each of three exemplary of anti-CD20 VHH sequences (clone ID: VHH-273, VHH-466 and VHH-496) with human IgG1 Fc fragment sequence (SEQ ID NO: 159) were cloned into a mammalian expression vector—pcDNA3.4, to facilitate the recombinant protein expression. The DNA codons were further optimized for optimal expression in mammalian host cell—Expi293F. The antibodies were harvested from the supernatant of cell culture, one-step purified by MabSelect SuRe LX and sterilized via a 0.2 μm filter. The purified antibody concentrations were determined by A280 and reached 2-6 mg/mL with ˜90% purity. Anti-CD20 scFv-huIgG1Fc mAb with amino acid sequence of Rituximab (C2B8) scFv shown in SEQ ID NO: 158 and anti-CD20 Fab-huIgG1Fc mAb with amino acid sequences of Leul6 VH-CH1 and VL-CL shown in SEQ ID NO: 163 and SEQ ID NO: 164 were used as positive controls for the cell surface binding assay. CD20 positive cell lines—Raji, K562-CD20 and negative cell line—K562 were re-suspended in complete culture medium, cells concentration was diluted to 1×10⁶ cells/mL and the staining was performed in 2×10⁵ cells per well. The mAbs were serially diluted from maximal concentration of 2000 nM (3-fold reduction, 12 pts) and added according to the experimental plan and protocol. The mAbs and cells were co-incubated for 1 hour at 4° C. Then, the cells were washed with 2(X) μL of DPBS+0.5% FBS and spun at 300 g for 5 mins, 4° C. The cells were stained with the detection antibody—PE-conjugated mouse anti-human IgG1 Fc (BioLegend, Cat. #409304, 1:100) for 40 mins at 4° C. The cells were then washed again and re-suspended with 200 μL of DPBS+0.5% FBS for flow cytometric analysis on a NovoCyte Flow Cytometer (ACEA Biosciences). The FACS data was analyzed by Novoexpress software, and the MFI (median fluorescent intensity) was analyzed by GraphPad PRISM version 6.0.

[2] = target: T1, human CD20 (membrane spanning 4-domains …); test: flow cytometry, mAb titrated on K562-CD20 cells, PE anti-human IgG1 Fc detection
Description: as §1, with “The mAbs and cells were co-incubated for 1 hour at 4° C. Then, the cells were washed with 2(X) μL of DPBS+0.5% FBS and spun at 300 g for 5 mins, 4° C. The cells were stained with the detection antibody—PE-conjugated mouse anti-human IgG1 Fc (BioLegend, Cat. #409304, 1:100) for 40 mins at 4° C. The cells were then washed again and re-suspended with 200 μL of DPBS+0.5% FBS for flow cytometric analysis on a NovoCyte Flow Cytometer (ACEA Biosciences).” left out

Binder | EC50 [1] [nM] | EC50 [2] [nM]
B1 | 75.3 | 41.1
B2 | 13.5 | 
B3 | 11.1 | 6.24
